According to patent publication US20240374682A1, “PHARMACEUTICAL USE OF HYPOXIA-INDUCIBLE LIPID DROPLET-ASSOCIATED PROTEIN OR TRUNCATED FRAGMENT THEREOF” (Westlake University, priority 2021, published 2024):

What was measured:
[1] = test system: HuH-7 cells, Hep-G2 cells or 786-0 cells; assay: Uptake of Dil-labelled human low-density lipoprotein by cells (flow cytometry); format: cell-based; details: 10 μM peptide, 5 μg/mL LDL-Dil, 3 hours, versus solvent (DMSO)
Procedure: 1) HuH-7 cells (Cat. No.: TCHu182. Cell Bank of Type Culture Collection Committee of Chinese Academy of Sciences/Cell Resource Center of Shanghai Institutes for Life Sciences. Chinese Academy of Sciences) and Hep-G2 cells (Cat. No.: HB-8065. ATCC. USA) or 786-0 cells (Cat. No.: Cell Bank TCHul86. Cell Bank of Type Culture Collection Committee of Chinese Academy of Sciences/Cell Resource Center of Shanghai Institutes for Life Sciences, Chinese Academy of Sciences) were cultured with DMEM medium in a 10 cm cell culture dish.
2) Low-density lipoprotein from human plasma and Dil complex (Cat. No. L3482. Invitrogen) were added at a final concentration of 5 μg/mL to the above cells, and at the same time. 10 μM HILPDA P01, truncated sequence P03 of HILPDA or corresponding volume of solvent (DMSO) was added to the cell culture medium.
3) After culturing for 3 hours, the cells were washed twice with PBS, and the flow cytometry experiment was performed, and the Dil signal intensity of the cells was detected on the PE channel (as shown in FIGS. 8A to 8D).

[2] = test system: ES-2 cells; assay: APOE3-3xHA uptake by recipient ES-2 cells with synthesized HILPDA peptides (immunofluorescence); format: cell-based; details: 10 μM peptide, 24 hours, versus solvent (DMSO)
Procedure: (§1) 1) HEK293T cells were cultured with DMEM medium in a 10 cm cell culture dish.
2) A plasmid of APOE3-3xHA gene was expressed in the above cells.
(§2) 3) After 12 hours, the old medium in 1) was replaced with fresh DMEM cell culture medium.
4) After further culturing for 48 hours, the media of the cells cultured in 3) were collected. respectively, and these media were used to directly culture the recipient ES-2 cells (Cat. No.: TCHu111. Cell Bank of Typical Culture Collection Committee of Chinese Academy of Sciences/Cell Resource Center of Shanghai Institutes for Life Sciences. Chinese Academy of Sciences) that had been pre-digested with 0.25% EDTA trypsin, and at the same time, 10 μM truncated sequence HILPDA P01, HILPDA P03 or the corresponding volume of solvent (DMSO) was added to the cell culture media.
5) After culturing for 24 hours, anti-HA antibody (Cat. No.: ab9110, abcam: a fusion protein for detecting APOE3-3xHA gene expression) was used to carry out immunofluorescent staining experiments.

[3] = test system: SD rats; assay: APOE content in rat cerebrospinal fluid after lateral ventricle injection (ELISA); format: in vivo; details: 0.8 mg/kg lateral ventricle, 4 hours after injection, versus solvent
Procedure: 1) SD rats (8-10 weeks, male, Shanghai Family Planning Institute) were injected through lateral ventricle with the truncated sequence P04 of HILPDA at a dose of 0.8 mg/kg rat body weight or with the same amount of solvent (50% DMSO+50% 0.9% NaCl) in total of 20 μL:
2) After 4 hours of injection, the cerebrospinal fluid of the rat was collected:
3) ELISA kit (Cat. No.: E-EL-R1230c, ELabScience) was used to detect the apolipoprotein APOE content in the cerebrospinal fluid.

[4] = test system: SD rats; assay: Low-density lipoprotein cholesterol level in rat plasma after tail vein injection; format: in vivo; details: 1.5 mg/kg tail vein, 5 hours after injection, versus solvent
Procedure: 1) SD rats (8-10 weeks old, female, Shanghai Family Planning Institute) were injected through tail vein with HILPDA P02 at a dose of 1.5 mg/kg rat body weight or the same amount of solvent (50% DMSO+50% 0.9% NaCl) in total of 100 μL:
2) After 5 hours of injection, about 1 mL of blood was collected from the tail vein, and the collected blood was placed in an EDTA-K2 anticoagulant tube and underwent ice-bath for 1 hour, then centrifuged at 2000*g at 4° C., for 10 minutes, and the supernatant plasma was collected:
3) A biochemical analyzer (Mindray 240) was used to analyze the low-density lipoprotein cholesterol content in the plasma (as shown in FIG. 10).

[5] = test system: neuronal cells obtained by induction and differentiation of human embryonic stem cells; assay: APOE uptake by recipient neuronal cells from conditioned medium (western blotting); format: cell-based; details: conditioned HEK293T medium, 24 hours
Procedure: as §1
2) The above cells separately were: transfected to express APOE2-3xHA plasmid, transfected to express APOE3-3xHA plasmid, transfected to express APOE4-3xHA plasmid, co-transfected with plasmid expressing HILPDA-Flag and APOE2-3xHA plasmid, co-transfected with plasmid expressing HILPDA-Flag and APOE3-3xHA plasmid, and co-transfected with plasmid expressing HILPDA-Flag and APOE4-3xHA plasmid.
as §2
4) After further culturing for 48 hours, the media of the cultured cells in 3) were collected, respectively, and these media were used to directly culture recipient neuronal cells, wherein the neuronal cells were obtained by induction and differentiation of human embryonic stem cells (WA09-H9 Wincell Research Institute) through STEMdiff Neural (STEMCELL Technologits) differentiation system.
5) After culturing for 24 hours, anti-Actin (Cat. No.: Proteintech, 66009-1-Ig) and anti-HA antibody (Cat. No.: ab9110, abcam: used to detect three fusion proteins expressed by different alleles APOE2-3xHA, APOE3-3xHA or APOE4-3xHA) were used to perform western blotting.

[6] = test system: recipient cells (786-O, 769-P, HuH7, ES-2); assay: APOE uptake by recipient cells from conditioned medium of HEK293T cells co-expressing HILPDA-Flag and APOE-3xHA (immunofluorescence); format: cell-based; details: 24 hours
Procedure: as §1
(§3) 2) The above cells were separately co-transfected with:
GFP-Flag expressing plasmid and APOE2-3xHA plasmid,
GFP-Flag expressing plasmid and APOE3-3xHA plasmid,
GFP-Flag expressing plasmid and APOE4-3xHA plasmid,
HILPDA-Flag expressing plasmid and APOE2-3xHA plasmid,
HILPDA-Flag expressing plasmid and APOE3-3xHA plasmid, and
HILPDA-Flag expressing plasmid and APOE4-3xHA plasmid.
as §2
4) After further culturing for 48 hours, the media of the cultured cells in 3) were collected, respectively, and these media were used to directly culture the recipient cells, such as 786-O (Cat. No.: Cell Bank TCHu186, Cell Bank of Type Culture Collection Committee of Chinese Academy of Sciences/Cell Resource Center of Shanghai Institutes for Life Sciences, Chinese Academy of Sciences), 769-P (Cat. No.: Cell Bank TCHu215, Cell Bank of Type Culture Collection Committee of Chinese Academy of Sciences/Cell Resource Center of Shanghai Institutes for Life Sciences, Chinese Academy of Sciences), HuH7 (Cat. No.: TCHu182, Cell Bank of Type Culture Collection Committee of Chinese Academy of Sciences/Cell Resource Center of Shanghai Institutes for Life Sciences, Chinese Academy of Sciences), ES-2 (Cat. No.: TCHu111, Cell Bank of Type Culture Collection Committee of Chinese Academy of Sciences/Cell Resource Center of Shanghai Institutes for Life Sciences, Chinese Academy of Sciences) wild-type cells, that had been pre-digested with trypsin containing 0.25% EDTA.
5) After culturing for 24 hours, anti-Flag (Cat. No.: F1804, sigma: for detecting GFP-Flag or HILPDA-Flag fusion protein) and anti-HA antibody (Cat. No.: ab9110, abcam: for detecting fusion proteins expressed by three different alleles of APOE2-3xHA, APOE3-3xHA or APOE4-3xHA) were used to perform immunofluorescent staining experiments.

[7] = test system: mouse brain slices; assay: APOE3 uptake by mouse brain slices from conditioned medium (immunofluorescence); format: cell-based; details: conditioned HEK293T medium, 48 hours, versus GFP-Flag + APOE3-3xHA
Procedure: as §1, §3
plasmid expressing GFP-FLAG and APOE3-3xHA plasmid, and
plasmid expressing HILPDA-Flag and APOE3-3xHA plasmid,
as §2
4) After further culturing for 48 hours, the media of the cultured cells in 3) were collected, respectively, and these media were used to directly culture mouse brain slices, wherein the brain slices were obtained by slicing fresh mouse brains to reach a thickness of 150 μm by a vibrating microtome. The slices were cultured in DMEM medium.
5) After culturing for 48 hours, immunofluorescent staining experiments were carried out with anti-HA antibody (Cat. No.: ab9110, abcam: for detecting APOE3-3xHA fusion protein).

Molecule: HILPDA P03: synthesized truncated human HILPDA, SEQ ID NO: 13 (MKHVLNLYLLGVVLTLLSIF) (truncated fragment of human HILPDA)
- uptake of human low-density lipoprotein particles (Dil signal intensity) [1]: Promote the Uptake
- APOE3-3xHA uptake by recipient cells (anti-HA fluorescent signal) [2]: Promote the Clearance

Molecule: HILPDA P04: synthesized truncated rat HILPDA, SEQ ID NO: 14 (MKYMLNLYVLGVMLTLLSIF) (truncated fragment of rat HILPDA)
- content of apolipoprotein APOE in the cerebrospinal fluid [3]: significantly decreased

B1: HILPDA P01: synthesized mouse HILPDA polypeptide, SEQ ID NO: 2 (peptide, listed as Mus musculus)
chain: MKFMLNLYVLGIMLTLLSIFVRVMESLGGLLESPLPGSSWITRGQLANTQPPKGLPDHPSRGVQ
- uptake of human low-density lipoprotein particles (Dil signal intensity) [1]: Promote the Uptake
- APOE3-3xHA uptake by recipient cells (anti-HA fluorescent signal) [2]: Promote the Clearance

B2: HILPDA P02: synthesized rat HILPDA polypeptide, SEQ ID NO: 12 (peptide, listed as Rattus norvegicus)
chain: MKYMLNLYVLGVMLTLLSIFVRLMESLGGLLENPLPGSSWITRGHLANTQPPRGLPDHPSRGVQ
- low-density lipoprotein cholesterol level in plasma [4]: significantly reduced

B3: HILPDA-Flag: human HILPDA protein fused with FLAG tag, expressed in HEK293T cells and secreted into culture medium (protein, UniProt Q9Y5L2 1-63, looked up)
Hypoxia-inducible lipid …: MKHVLNLYLLGVVLTLLSIFVRVMESLEGLLESPSPGTSWTTRSQLANTEPTKGLPDHPSRSM
modifications: FLAG tag
notes: human HILPDA protein fused with FLAG tag, expressed in HEK293T cells and secreted into culture medium
- APOE2-3xHA level in recipient neuronal cells (anti-HA bands) ([5]; versus APOE2-3xHA alone): higher levels of APOE
- APOE3-3xHA level in recipient neuronal cells (anti-HA bands) ([5]; versus APOE3-3xHA alone): higher levels of APOE
- APOE4-3xHA level in recipient neuronal cells (anti-HA bands) ([5]; versus APOE4-3xHA alone): higher levels of APOE
- APOE2-3xHA uptake by recipient cells (anti-HA fluorescent signal) ([6]; versus GFP-Flag + APOE2-3xHA): more and stronger fluorescent signals
- APOE3-3xHA uptake by recipient cells (anti-HA fluorescent signal) ([6]; versus GFP-Flag + APOE3-3xHA): more and stronger fluorescent signals
- APOE4-3xHA uptake by recipient cells (anti-HA fluorescent signal) ([6]; versus GFP-Flag + APOE4-3xHA): more and stronger fluorescent signals
- APOE3-3xHA uptake by brain slices (anti-HA fluorescent signal) [7]: more and stronger fluorescent signals
